{"source": "the nanobody polyreactivity screen of Harvey et al. (2022)"}
{"experiment": "yeast display, Sf9 membrane polyspecificity reagent, FACS + sequencing; frameworks hold sequencing errors", "how_it_was_run": "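Galactose induction of a Saccharomyces cerevisiae BJ5465 synthetic nanobody display library ran 36–48 hours. The cells were then stained for 1 hour at 4 °C with 10% biotinylated, detergent-solubilized Sf9 membrane reagent, pulled down on streptavidin microbeads and FACS-sorted into low and high (top ~1%) gates on expression and reagent-binding fluorescence. Labels for polyreactivity follow the gate of origin.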"}
{"sequence": "QVQLVESGGGLVQAGGSLRLSCAAYGRIFFYYVMGWYRQAPGNERELVAGITRGGISNYADSVKGRFTISRDNAKNTVYLQMNSLKPEDTAVYYCAAAYYRDSDRRYNYWGQGTQVTVSS", "polyreactivity (PSR sort gate)": "high polyreactivity"}
{"sequence": "QVQLVESGGGLVQAGGSLRLSCAASGSIFVGNAMGWYRQAPGKERELVAAISSSGGRTFYADSVKGRFTISRDNAKNTVYLQMNSLKPEDTAVYYCAAVYTHWQQRMDYWGQGTQVTVSS", "polyreactivity (PSR sort gate)": "high polyreactivity"}
{"sequence": "QVQHVESVGGLVQAGGSLRLSCAASGFIFRRYVMGWNRQAPGKERELVAAISYGGGSTYYADSVKGRFTISRDNAKNTVYLQMNCLKPEDTAVYYCNAVSYNLAAYEYWGQGTQVTVSS", "polyreactivity (PSR sort gate)": "high polyreactivity"}
{"sequence": "QVQLVESGGGLVQAGGSLRLSCAASGSTFVRYAMGWYRQAPGKERELVAAISSGGSRTYYADSVKGRFTISRDNAKNTVYLQMNSLKPEDTAVYYCATVSTYYHYRRYDYWGQGTQVTVSS", "polyreactivity (PSR sort gate)": "high polyreactivity"}
{"sequence": "QVQLVESGGGLVQAGGSLRLSCAASGFTFTYYAMGWYRQAPGKERELVAAISWRGTSTFYADSVKGRFTISRDNAKNTVYLQMNSLKPEDTAVYYCATEKWVGYKYWSSRKYDYWGQGTQVTVSS", "polyreactivity (PSR sort gate)": "high polyreactivity"}
{"sequence": "QVQLVESGGGLVQAGGSLRLSCAASGSIFYRNAMGWYRQAPGKERELVAAISSDGSTNYADSVKGRFTISRDNAKNTVYLQMNSLKPEDTAVYYCAAPWTHILDYWGQGTQVTVSS", "polyreactivity (PSR sort gate)": "low polyreactivity"}
{"sequence": "QVQLVESGGGLVQAGGSLRLSCAASGSTFTYNAMGWYRQAPGKERELVAAIRSNGGSTYADSVKGRFTISRDNAKNTVYLQMNCLKPEDTAVYYWAARWRDYYRWGSRGGYGYWGQGTQVTVSS", "polyreactivity (PSR sort gate)": "high polyreactivity"}
{"sequence": "QVQLVESGGGLVQAGGSLRLSCAASGSIFNGYVMGWYRQAPGKERELVAAISGSGGRTYYADSVKGRFTISRDNAKNTVYLQMNSLKPEDTAVYYCAAYPDLRDSRRIRYGYNYWGQGTQVTVSS", "polyreactivity (PSR sort gate)": "high polyreactivity"}
{"sequence": "QVQLQESGGGLMQAGGSLRLSCTASGTISDVRVMGWYRQAPGRERELVATISYVTITYYADSVKGRFTISRDSEKHRVSADDEPETGRYRGVLLRYYWGLGTQVTVSS", "polyreactivity (PSR sort gate)": "low polyreactivity"}
{"sequence": "QVQLVESGGGLVQAGGSLRLSCAASGSTSDINAMGWYRQAPGKERELVAAISSSGGRTYYADSVKGRFTISRDNAKNTVYLQMNSLKPEDTAVYYCAADTYTSAQHEKYDYWGQGTQVTVSS", "polyreactivity (PSR sort gate)": "low polyreactivity"}
{"sequence": "QVQLVESGGGLVQAGGSLRLSCAASGRIFVGNTMGWYRQAPGKERELVAAISWRGRTSYADSVKGRFTISRDNAKNTVYLQMNSLKPEDTAVYYCNAEHAGATRYYYIANWMDYWGQGTQVTVSS", "polyreactivity (PSR sort gate)": "low polyreactivity"}
{"sequence": "QVQLVESGGGLVQAGGSLRLSCAASGLIFTYYTMGWYRQEPGTERELVATINWNTSSTYYADSVKGRFTISRDNAKNTVYLQMNSLKPEDTAVYYCNKRIAESDTTVTYDYWGQGTQVTVSS", "polyreactivity (PSR sort gate)": "low polyreactivity"}
{"sequence": "QVQLVESGGGLVQAGGSLRLSCAASGRTFAPYAMGWYRQAPGKERELVAAISQRGGSTYYADSVKGRFTISRDNAKNTVYLQMNSLKPEDTAIYYCAATKYFYRLSSAFSFGTYGYWGQGTQVTVSS", "polyreactivity (PSR sort gate)": "low polyreactivity"}
{"sequence": "QVQLQESGGGLVKAGGSLRLSCAASGNISPRDAMGWYRQAPGEERDLVASNAYSAITYYADGVKGRYTISRDNAKNTVYLQMNSLKPEDTVVYYCAVYQFTYPVFPAYWGQGTQVTVSS", "polyreactivity (PSR sort gate)": "low polyreactivity"}
{"sequence": "QVQLVESGGGLVQAGGSLRLSCAASGSTFEQYAMGWYRQAPGKERELVASISTGGGRTYYADSVKGRFTISRDNAKNTVFLQMNSLKPEDTAVYYCNKRYRGYKTGYSRYDYWGQGTQVTVSS", "polyreactivity (PSR sort gate)": "low polyreactivity"}
{"sequence": "QVQLVESGGGLVQAGGRLRLSCAASGLIILRYTMGWYRQAPGKERELVAVITSGGRTYYADSVKGRFTISRDNAKNTVYLQMNSLKPEDTAVYYCAASVGLRTSFTGGGYWGQGTQVTVSS", "polyreactivity (PSR sort gate)": "high polyreactivity"}
{"sequence": "QVQLVESGGGLVQAGGSLRLSCAASGRTLTGNAMGWYRQAPGKERELVAVISYSGTNTRYADSVKGRFTISRDNAKNTVYLQMNSLKPEDTAVYYCAARRPAPNYSSRYDYWGQGTQVTVSS", "polyreactivity (PSR sort gate)": "high polyreactivity"}
{"sequence": "QVQLVESGGGLVQAGGSLRISCASSGSIFYLNAMGWYRQAPGKERELVAAISRRGGTTSYADSVKGRFTISRDNAKNTVFLQMNSLKPEDTAVYYCAKRTKPSKNYYYWGQGTQVTVSS", "polyreactivity (PSR sort gate)": "high polyreactivity"}
{"sequence": "QVQLVESGGGLVQAGGSLRLSCAASGITFPGTVMGWYRQAPGKERELVAAISTSGGSTYYADSVKGRFTISRDNAKNTVYLQMNSLKPEDTAVYYCARQYIRSSYGYWGQGTQVTVSS", "polyreactivity (PSR sort gate)": "low polyreactivity"}
{"sequence": "QVQLVESGGGLVQAGGSLRLSCAASGITSGNNALGWYRQAPGKERELVAALSWTGGSTYYADSVKGRFTISRDNAKNTVYLQMNSLKPEDTAVYYCAAKGLRYRDIDYDYWGQGTQVTVSS", "polyreactivity (PSR sort gate)": "low polyreactivity"}
{"sequence": "EVQLVESGGGLVQAGGSLRLTCAASGSIFPVYAMGWYRQAPGKERELVASISNGGTTYYADSVKGRFTISRDNAKNTVYLQMKSLKAEDTAVYYCAATGWAYGYGYGYWGQGSQVTVSS", "polyreactivity (PSR sort gate)": "low polyreactivity"}
{"sequence": "QVQLVESGGGLVQAGGSLRLSCAASGFIFGYYAMGWYRKAPGKERELVAAITSGDGSTYADSVKGRFTISRDNEKNTVYLQMNSLKPEDTAVYYCAAVFRYYTYSGAVRYYYWGQGTQVTVSS", "polyreactivity (PSR sort gate)": "high polyreactivity"}
{"sequence": "QVQLVESGGGFVQAGGSHRLSCASSGRTFVLYTMGLYRQAPGKERELVAVGSTYYADSVKGRFTISRDNAKNTVYLQMNSLKPEDTALYYCNKPGNYLWRRSWDFYYWGQGTQVTVST", "polyreactivity (PSR sort gate)": "high polyreactivity"}
{"sequence": "QVQLVESGGGLVQAGGSLRLSCAASGRTFGIYAMGWYRQAPGKERELVAAITGRGGSTHYADSVKGRFTISRDNAKNTVYLQMNSLKPEDTAVYYCAADYRYNRGITSNKDYDYWGQGTQVTVSS", "polyreactivity (PSR sort gate)": "low polyreactivity"}
{"sequence": "QVQLVESGGGLVQAGGSLRLSCAASGRTFTRYAMGWYRQAPGKERELVAAITSDGTTYYADSVKGRFTISRDNAKNTVYLQMNSLKPEDTAVYYCNAQYKFPDLGGYDYWGQGTQVTVSS", "polyreactivity (PSR sort gate)": "high polyreactivity"}
{"sequence": "QVQLVESGGGLYQAGGSLRLSCAASGFILSTNVMGWYRQAPGKEREKVAAISARGGSTYYADSVKGRFTISRDNAKNTVYLQMNILKPEDTAVYYCAARVYVSRSKRLNYWGQGTQVTVSS", "polyreactivity (PSR sort gate)": "high polyreactivity"}
{"sequence": "QVQLVESGGGLVQAGGSLRLSCAASGITFRYYTMGWYRQAPGKERELVAVISWSGGSTYYADSVKGRFTISRDNGKNTVYLQMNSLKPEDTAVYYCAAVRRISRYDYWGQGTQVTVSS", "polyreactivity (PSR sort gate)": "high polyreactivity"}
{"sequence": "QVQLVESGGGLVQAGGSLRLTCAASGSIFNGNAMGWYRQAPGKERELVAAISNVGRTDYADSVKGRFTISRDNAKNTVYLQMNSLKPEDTAVYYCAAGVYSGYNRYFAPRSWFGYYYWGQGTQVTVSS", "polyreactivity (PSR sort gate)": "low polyreactivity"}
{"sequence": "QVQLVESWGGLVQAGGSHRLSCSASGTILGDYGMGWYRQAPGKEREMVGAITWNGDSTYYADSVKGRFTISRDNAKNTVYLQMNSLKPEDTAVYYCAADLKDYKYYPWYGYWGQGTQVTVSS", "polyreactivity (PSR sort gate)": "low polyreactivity"}
{"sequence": "QVQLVESGGGLDQAGGSLRLSCAASGRIFIKNTMGWYRQAPGKERELVAAITSSGSSTYYADSVKGRFTISRDNAKNTVYLKMNSLKPEDTAVYYCNALTWDHSRTGVDYWGQGTQVTVSS", "polyreactivity (PSR sort gate)": "low polyreactivity"}
{"sequence": "QDQLVESGGGLVQAGGSLRLSCAASGSTFTPNALGWYRQPPGKQRELVAAISTRGSSTYYADSVKGRFTISRDNAKNTVYLQMNRLKPEDTAVYSCAAPFKYGLSYGSWYGYCGQGTQVTVSS", "polyreactivity (PSR sort gate)": "high polyreactivity"}
{"sequence": "QVQLVESGGGLVQAGGSLRLSCAASGLTFPDNAMGWYRQAPGKERELVAAITIDGSTYYADSVKGRFTISRDNAKNTVYLQMNSLKPEDTSVYYCNALVGVPYAMYYWGQGTQVTVSS", "polyreactivity (PSR sort gate)": "low polyreactivity"}
{"sequence": "QVQLVESGGGLVQAGASLRLSCAASGHIFDSYAMGWYRQAPGKERELVAAITSGGSTYYADSVKGRFTISRDYAKNTVYLQMNSLKSEDTAVYYCATELGAAGDDSWGQGTQVTVSS", "polyreactivity (PSR sort gate)": "low polyreactivity"}
{"sequence": "QVQLVESGGGLVQAGGSLRLSCAASGRIFVGYAMGWYRQAPGKERELVAAITKSGGRTYYADSVKGRFTISRDNAKNTVYLQMNSLKPEDTAVYFCAKYLGRQHEKDLGGMNYWGQGTQLTVSS", "polyreactivity (PSR sort gate)": "high polyreactivity"}
{"sequence": "QVQLVESGGGLVQAGGSLRLSCAASGSIFQYNAMGWSRQAPGKERELVAAIRTNYADSVKGRFTISRDNAKNTVYLQMNSLKPEDTAVYYCAAESSQTPTSAFDYWGQGTQVTVSS", "polyreactivity (PSR sort gate)": "low polyreactivity"}
{"sequence": "QVQLVDSGGGLVQAGGSLRLSCAASGSILNNYAMGWYRQARGKERELVAAISSSGGTNYADSVKGRFTISRDNAKNTVYLQMNSLKPEDTAVYYCYADVLDGGYDYWGQGTQVTESS", "polyreactivity (PSR sort gate)": "low polyreactivity"}
{"sequence": "QDQLVESGGGLVQAGGSLRLSCAASGLIFPAYTMGWSRQAQGKERELVAAISRSGGSTYYADSVKGRFTISRDNAKNTVYLQMNSLKPEDTAVYYCAAYYSGGYDYWGLGTQVTVSS", "polyreactivity (PSR sort gate)": "high polyreactivity"}
{"sequence": "QVQLVESGGGLVQAGGSLRLSCAASGSIFYTYAMGWYRPAPGKEREFVAAITSSGGSTYYADSVKGRFTISRDNAKNTVYLQMNSLKPEDTAVYYCAARTPHYGKCYDIFDYWGQGTQVTVSS", "polyreactivity (PSR sort gate)": "low polyreactivity"}
{"sequence": "QVQLVESGGGLVQAGGSLRLSCAASGLTFVEYAMGWYRQAPGKEREFVAAIRSRGGSTYYADSVKGRFTISRDNAKNTVYLQMNSLKPEDTAVYYCTADGYFWGQGTQVTVSS", "polyreactivity (PSR sort gate)": "low polyreactivity"}
{"sequence": "QVHLVESGGGLVQAGGSLRLSSAPSGSILLINAMGWYRQAPGKERELVAAIRTGGSTYYADSVKGRFTISRDNAKNTVYLQMNSLKPEDTAVYYCNVDYDVQPGGEFDYWGQGTQVTVSS", "polyreactivity (PSR sort gate)": "low polyreactivity"}
{"sequence": "QVQLVESGGGLVQAGGSLRLSCAASGFTFWRNAMGWYRQAPGKERELVAAISASGGSTYYADSVKGRFTISRDYAKNTVYLQKNSLKPEDTAVYYCAADTQGFYRYDYWGQGTQVTVSS", "polyreactivity (PSR sort gate)": "low polyreactivity"}
